Where a chain is given by its changes, count along the chain named.
B1: C0101PMP059F06 (VHH)
VHH: EVQLVESEGGTVEPGESLRLACAAPGPGIRTNFMAWYRQAPEKEREMVASISRDGSTHYADSVKGRFTISSDNATSTFYLQMNSLQVEDTAVYYCATDPHILHNDRAGAFLVEDYDHWGQGTQVTVSS
notes: Profile 2 Nanobody
B2: C0101PMP525C04 (VHH)
VHH: DVQLVESGGGLVQPGGSLRLSCAGSGSIFSGNAMGWYRQAPGKQRELVAAITSGGVTNYADSVKGRFTISRDNSKNTVYLQMNSLRPEDTAVYYCAADIRYPTGLVGDYWGQGTLVTVSS
notes: Profile 2 Nanobody
B3: C0101PMP520C04 (VHH)
VHH: DVQLVESGGGLVQPGGSLRLSCAASGRTFSSYAMGWFRQAPGKEREFVAAISWSGGSTYYSDSVKGRFTISRDNSKNTVYLQMNSLRPEDTAVYYCTAARGGVAGTDGPLGDYNYWGQGTLVTVSS
notes: Profile 2 Nanobody
B4: C010100280 (VHH)
VHH: EVQLVESGGGLVQPGGSLRLSCAASGFAFSAAYMSWVRQAPGKGLEWVSSISDDGSKTYYADSVKGRFTISRDNSKNTVYLQMNSLRPEDTAVYYCNTGYGATTTRPGRYWGQGTLVTVSS
B5: C010100691 (bispecific antibody)
chain: EVQLVESGGGLVQPGGSLRLSCAASGSIFSINAMGWYRQAPGKQRELVAAISSGGSTYYADSVKGRFTISRDNSKNTVYLQMNSLRPEDTAVYYCNAAVDASRGLPYELYYYWGQGTLVTVSSGGGGSGGGGSGGGGSGGGGSGGGGSGGGGSGGGGSEVQLVESGGGLVQPGGSLRLSCAASGRTFSSYTMGWFRQAPGKEREFVAAISWSGGRTYYADSVKGRFTISRDNSKNTVYLQMNSLRPEDTAVYYCAAYRRRRASSNRGLWDYWGQGTLVTVSS
B6: C010100080 (bispecific antibody)
chain: EVQLVESGGGLVQPGGSLRLSCAASGRTFSSYAMGWFRQAPGKEREFVAAISWSGGSTYYADSVKGRFTISRDNSKNTVYLQMNSLRPEDTAVYYCTAALAVYGPNRYRYGPVGEYNYWGQGTLVTVSSGGGGSGGGGSGGGGSGGGGSGGGGSGGGGSGGGGSEVQLVESGGGSVQAGGSLRLSCAASGSTFSRYSMNWYRQAPGKQREFVAGISVGRITNYAVSVRGRFTISRDNAEGTGYLQMNSLKPEDTAVYYCNAGGLQGYWGLGTLVTVSSGAADYKDHDGDYKDHDIDYKDDDDKGAAHHHHHH
B7: C010100689 (bispecific antibody)
chain: EVQLVESGGGLVQPGGSLRLSCAASGFAFSAAYMSWVRQAPGKGLEWVSSISDDGSKTYYADSVKGRFTISRDNSKNTVYLQMNSLRPEDTAVYYCNTGYGATTTRPGRYWGQGTLVTVSSGGGGSGGGGSGGGGSGGGGSGGGGSGGGGSGGGGSEVQLVESGGGLVQPGGSLRLSCAASGSTFIINVVRWYRRAPGKQRELVATISSGGNANYVDSVRGRFTISRDNSKNTVYLQMNSLRPEDTAVYYCNVPTTHYGGVYYGPYWGQGTLVTVSS
B8: C010100696 (bispecific antibody)
chain: EVQLVESGGGLVQPGGSLRLSCAASGRTFSSYAMGWFRQAPGKEREFVAAISWSGGSTYYADSVKGRFTISRDNSKNTVYLQMNSLRPEDTAVYYCTAALAVYGPSRYRYGPVGEYQYWGQGTLVTVSSGGGGSGGGGSGGGGSGGGGSGGGGSGGGGSGGGGSEVQLVESGGGSVQPGGSLRLSCAASGSTFSRYSMNWYRQAPGKQREFVAGISVGRITNYAVSVRGRFTISRDNSEGTGYLQMNSLRPEDTAVYYCNAGGLQGYWGLGTLVTVSSGGGGSGGGGSGGGGSGGGGSGGGGSGGGGSGGGGSEVQLVESGGGLVQPGGSLRLSCAASGRTFSSYTMGWFRQAPGKEREFVAAISWSGGRTYYADSVKGRFTISRDNSKNTVYLQMNSLRPEDTAVYYCAAYRRRRASSNRGLWDYWGQGTLVTVSS
B9: C010100170 (VHH)
VHH: EVQLVESGGGLVQPGGSLRLSCAASGSIFSINAMGWYRQAPGKQRELVAAISSGGSTYYADSVKGRFTISRDNSKNTVYLQMNSLRPEDTAVYYCNAAVDASRGLPYELYYYWGQGTLVTVSS
B10: C010100726 (bispecific antibody)
chain: EVQLVESGGGLVQPGGSLRLSCAASGRTFSSYAMGWFRQAPGKEREFVAAISWSGGSTYYADSVKGRFTISRDNSKNTVYLQMNSLRPEDTAVYYCTAALAVYGPSRYRYGPVGEYQYWGQGTLVTVSSGGGGSGGGGSGGGGSGGGGSGGGGSGGGGSGGGGSEVQLVESGGGLVQPGGSLRLSCAASGSTFSRYSMNWYRQAPGKQREFVAGISVGRITNYAVSVKGRFTISRDNSKNTVYLQMNSLRPEDTAVYYCNAGGLQGYWGQGTLVTVSS
B11: C010100727 (bispecific antibody)
chain: B10 chain with V242G
B12: C010100101 (VHH)
VHH: EVQLVESGGGLVQPGGSLRLSCAASGFTLAYYSIGWFRQAPGKEREGVSCISSGIDGSTYYADSVKGRFTISRDNAKNTMYLQMNNLKPEDTGVYYCAADPSHYYSEYDCGYYGMDYWGKGTLVTVSS
B13: C010100700 (bispecific antibody)
chain: EVQLVESGGGLVQPGGSLRLSCAASGRTFSSYAMGWFRQAPGKEREFVAAISWSGGSTYYADSVKGRFTISRDNSKNTVYLQMNSLRPEDTAVYYCTAALAVYGPSRYRYGPVGEYQYWGQGTLVTVSSGGGGSGGGGSGGGGSGGGGSGGGGSGGGGSGGGGSEVQLVESGGGSVQPGGSLRLSCAASGSTFSRYSMNWYRQAPGKQREFVAGISVGRITNYAVSVRGRFTISRDNSEGTGYLQMNSLRPEDTAVYYCNAGGLQGYWGLGTLVTVSSGGGGSGGGGSGGGGSGGGGSGGGGSGGGGSGGGGSEVQLVESGGGLVQPGGSLRLSCAASGSTFIINVVRWYRRAPGKQRELVATISSGGNANYVDSVRGRFTISRDNSKNTVYLQMNSLRPEDTAVYYCNVPTTHYGGVYYGPYWGQGTLVTVSS
B14: C010100687 (bispecific antibody)
chain: EVQLVESGGGLVQPGGSLRLSCAASGFTLAYYSIGWFRQAPGKEREGVSCISSGIDGSTYYADSVKGRFTISRDNAKNTMYLQMNNLKPEDTGVYYCAADPSHYYSEYDCGYYGMDYWGKGTLVTVSSGGGGSGGGGSGGGGSGGGGSGGGGSGGGGSGGGGSEVQLVESGGGLVQPGGSLRLSCAASGSTFIINVVRWYRRAPGKQRELVATISSGGNANYVDSVRGRFTISRDNSKNTVYLQMNSLRPEDTAVYYCNVPTTHYGGVYYGPYWGQGTLVTVSS
B15: C010100692 (bispecific antibody)
chain: EVQLVESGGGLVQPGGSLRLSCAASGFAFSAAYMSWVRQAPGKGLEWVSSISDDGSKTYYADSVKGRFTISRDNSKNTVYLQMNSLRPEDTAVYYCNTGYGATTTRPGRYWGQGTLVTVSSGGGGSGGGGSGGGGSGGGGSGGGGSGGGGSGGGGSEVQLVESGGGLVQPGGSLRLSCAASGRTFSSYTMGWFRQAPGKEREFVAAISWSGGRTYYADSVKGRFTISRDNSKNTVYLQMNSLRPEDTAVYYCAAYRRRRASSNRGLWDYWGQGTLVTVSS
B16: C010100688 (bispecific antibody)
chain: EVQLVESGGGLVQPGGSLRLSCAASGSIFSINAMGWYRQAPGKQRELVAAISSGGSTYYADSVKGRFTISRDNSKNTVYLQMNSLRPEDTAVYYCNAAVDASRGLPYELYYYWGQGTLVTVSSGGGGSGGGGSGGGGSGGGGSGGGGSGGGGSGGGGSEVQLVESGGGLVQPGGSLRLSCAASGSTFIINVVRWYRRAPGKQRELVATISSGGNANYVDSVRGRFTISRDNSKNTVYLQMNSLRPEDTAVYYCNVPTTHYGGVYYGPYWGQGTLVTVSS
B17: C0101PMP513C04 (VHH)
VHH: DVQLVESGGGLVQPGGSLRLSCAASGRTFSRYVMGWFRQAPGKEREFVAAINWSSGSTYYADSVKGRFTISRDNSKNTVYLQMNSLRPEDTAVYYCAADRRVYYDTYPNLRGYDYWGQGTLVTVSS
B18: C0101PMP080A01 (VHH)
VHH: B12 VHH

molecular target: T1, activated MMP13 (species not stated) (Homo sapiens (Human), UniProt P45452 104-471, Biotinylated in the TIMP-2 competition ELISA (sites not given). Activated form: pro-peptide removed.); test: TIMP-2 competition ELISA; Nanobody pre-incubated with 1.26 nM activated MMP13-biotin, binding to captured TIMP-2
T1 construct: campaign 4 ELISA; Probably human

| IC50 [nM] | Binder |
| --- | --- |
| 51.8 | B1 |
| 36.2 | B2 |
| 8 | B3 |

molecular target: T2, activated human MMP13 (human, UniProt P45452 104-471); test: cell-based or functional assay

| potency, human fluorogenic peptide assay [pM] | Binder |
| --- | --- |
| 1010 | B4 |
| 484 | B5 |
| 488 | B6 |
| 1910 | B7 |
| 107 | B8 |
| 608 | B9 |
| 67.1 | B10 |
| 134 | B11 |
| 3920 | B12 |
| 31.8 | B13 |
| 1570 | B14 |
| 828 | B15 |
| 927 | B16 |

molecular target: activated rat MMP13 (rat, UniProt P23097 99-466); test: cell-based or functional assay

| IC50, rat fluorogenic peptide assay [nM] | Binder |
| --- | --- |
| 38.9 | B1 |
| 16.2 | B17 |
| 4.2 | B18 |
| 157 | B2 |
| 5.6 | B3 |

molecular target: cynomolgus MMP13 (cynomolgus, UniProt A0A2K5U988 104-471); test: cell-based or functional assay

| IC50, cyno fluorogenic peptide assay [nM] | Binder |
| --- | --- |
| 48.5 | B1 |
| 8 | B17 |
| 2.9 | B18 |
| 32.5 | B2 |
| 32.5 | B3 |

molecular target: bovine MMP13 (bovine, UniProt O77656 104-471); test: cell-based or functional assay

| IC50, bovine fluorogenic peptide assay [nM] | Binder |
| --- | --- |
| 108 | B1 |
| 48.7 | B17 |
| 6.4 | B18 |
| 108 | B2 |
| 27.9 | B3 |

molecular target: activated dog MMP13 (dog, UniProt P45452 104-471 (human entry)); test: cell-based or functional assay

| IC50, dog fluorogenic peptide assay [nM] | Binder |
| --- | --- |
| 82.6 | B1 |
| 35.2 | B17 |
| 6 | B18 |
| 90.8 | B2 |
| 10.5 | B3 |

molecular target: T2, activated human MMP13; test: cell-based or functional assay; remark: another data set of the same source

| IC50, human fluorogenic collagen assay [nM] | IC50, human fluorogenic peptide assay [nM] | Binder |
| --- | --- | --- |
| 140 | 56.3 | B1 |
| 18.1 | 7.7 | B17 |
| 10.8 | 5.2 | B18 |
| 90.5 | 58 | B2 |
| 31.5 | 13.7 | B3 |
